Values of other authors in publication PMC5331467.

Biological target: Tyr7 (UniProt position 7, SHHWGYGKHNG)
Assay: NMR (jointly with neutron crystallography)

Substance: Carbonic anhydrase II (CA-II) (Homo sapiens)
- pKa: 7.1
